Data reported in patent publication US20190091296.

Key:
[1] = biological target: Comparator: GLP1 analogue having the amino acid sequence characteristics of LY2189265 fused to hIgG4 Fc domain
Comparator: GLP1 analogue having the amino acid sequence characteristics of LY2189265 fused to hIgG4 Fc domain, sequence (chain, as listed by the source): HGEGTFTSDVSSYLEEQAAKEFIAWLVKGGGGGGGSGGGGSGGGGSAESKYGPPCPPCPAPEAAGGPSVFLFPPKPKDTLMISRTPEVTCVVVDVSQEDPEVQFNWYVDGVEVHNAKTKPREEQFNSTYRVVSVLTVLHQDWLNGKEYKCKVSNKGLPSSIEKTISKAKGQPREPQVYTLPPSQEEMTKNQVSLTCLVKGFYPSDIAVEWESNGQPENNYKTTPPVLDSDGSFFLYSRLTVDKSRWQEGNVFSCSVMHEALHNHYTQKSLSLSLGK

B1: recombinant human DPP4 (protein)
chain: SRKTYTLTDYLKNTYRLKLYSLRWISDHEYLYKQENNILVFNAEYGNSSVFLENSTFDEFGHSINDYSISPDGQFILLEYNYVKQWRHSYTASYDIYDLNKRQLITEERIPNNTQWVTWSPVGHKLAYVWNNDIYVKIEPNLPSYRITWTGKEDIIYNGITDWVYEEEVFSAYSALWWSPNGTFLAYAQFNDTEVPLIEYSFYSDESLQYPKTVRVPYPKAGAVNPTVKFFVVNTDSLSSVTNATSIQITAPASMLIGDHYLCDVTWATQERISLQWLRRIQNYSVMDICDYDESSGRWNCLVARQHIEMSTTGWVGRFRPSEPHFTLDGNSFYKIISNEEGYRHICYFQIDKKDCTFITKGTWEVIGIEALTSDYLYYISNEYKGMPGGRNLYKIQLSDYTKVTCLSCELNPERCQYYSVSFSKEAKYYQLRCSGPGLPLYTLHSSVNDKGLRVLEDNSALDKMLQNVQMPSKKLDFIILNETKFWYQMILPPHFDKSKKYPLLLDVYAGPCSQKADTVFRLNWATYLASTENIIVASFDGRGSGYQGDKIMHAINRRLGTFEVEDQIEAARQFSKMGFVDNKRIAIWGWSYGGYVTSMVLGSGSGVFKCGIAVAPVSRWEYYDSVYTERYMGLPTPEDNLDHYRNSTVMSRAENFKQVEYLLIHGTADDNVHFQQSAQISKALVDVGVDFQAMWYTDEDHGIASSTAHQHIYTHMSHFIKQCFSLP
Cleavage % after 4 hours [1]: 4%
Cleavage % after 72 hours [1]: 41%
Cleavage % after 4 hours (Q-GLP1-hFc): 0%
Cleavage % after 72 hours (Q-GLP1-hFc): 0%
